The values that follow come from patent US20180355049A1 (CANTARGIA, published 2018).

Test [1] addresses T1, human IL1RAP on cells (KU812, LAMA-84, HEK-Blue IL-33/IL-1β cells) (human, UniProt Q9NPH3 21-570).
T1 sequence (looked up): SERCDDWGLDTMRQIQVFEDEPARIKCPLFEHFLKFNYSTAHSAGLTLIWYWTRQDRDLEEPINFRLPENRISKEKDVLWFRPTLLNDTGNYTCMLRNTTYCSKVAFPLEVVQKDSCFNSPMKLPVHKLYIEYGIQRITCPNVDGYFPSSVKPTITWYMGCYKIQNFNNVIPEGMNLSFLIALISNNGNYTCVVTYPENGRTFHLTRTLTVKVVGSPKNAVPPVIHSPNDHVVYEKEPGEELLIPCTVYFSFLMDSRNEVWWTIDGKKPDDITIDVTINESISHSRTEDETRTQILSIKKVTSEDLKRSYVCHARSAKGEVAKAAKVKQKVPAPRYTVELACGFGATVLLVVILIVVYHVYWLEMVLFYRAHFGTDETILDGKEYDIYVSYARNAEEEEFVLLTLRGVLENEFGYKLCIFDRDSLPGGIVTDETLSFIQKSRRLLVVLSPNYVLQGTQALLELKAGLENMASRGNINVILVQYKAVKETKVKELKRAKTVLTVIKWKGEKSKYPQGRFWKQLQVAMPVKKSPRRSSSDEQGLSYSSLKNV
Put plainly: cell-based or functional assay.

In test [2] the target is T2, IL1RAP protein (analyte of the Biacore study, Example A(i)) (human, UniProt Q9NPH3 21-367, limits assumed).
T2 construct: also called the analyte; human IL1RAP
T2 sequence (looked up): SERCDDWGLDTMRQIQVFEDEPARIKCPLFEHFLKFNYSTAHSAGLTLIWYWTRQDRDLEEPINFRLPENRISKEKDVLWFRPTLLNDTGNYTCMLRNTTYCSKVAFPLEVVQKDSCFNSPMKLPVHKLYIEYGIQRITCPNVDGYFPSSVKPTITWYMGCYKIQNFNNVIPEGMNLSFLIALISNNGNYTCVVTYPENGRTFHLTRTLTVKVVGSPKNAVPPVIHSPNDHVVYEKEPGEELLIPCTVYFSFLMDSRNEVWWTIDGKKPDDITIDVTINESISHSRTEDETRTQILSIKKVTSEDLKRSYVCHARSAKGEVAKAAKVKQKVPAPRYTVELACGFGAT
Briefly: SPR, BIAcore T200, antibody captured by anti-mouse IgG, analyte 100 nM, 25 C. As for the experimental part: Goat anti-mouse IgG was immobilized on a CM5 chip according to the technical manual of capture kit and standard operation principle of BIAcore T200 (Biacore Life Sciences, GE Healthcare Europe GmbH, Uppsala, Sweden).
The capture molecule surface was regenerated after each binding cycle using the manufacturer's recommended conditions.
After five cycles of start-up, each antibody (100 nM) was injected at a flow rate of 30 μl/min, for 120 s, at the start of the cycle; then the analyte (100 nM) was injected at a flow rate of 30 μl/min, for 120 s, followed by monitoring the dissociation phase for 300 s.
For orientation: In SPR one partner is held on a chip, and binding of the other changes the refractive index at the surface.

For test [3], the target named is T1, human IL1RAP on cells (KU812, LAMA-84, …). Put plainly: cell-based or functional assay. This is another data set of the same source.

B1: CAN01 (antibody, V domains shown)
VH: QVQLQQSGTELMKPGASVKISCKATGYTVSSYWIDWVKQTPGHGLEWIGEILPGSAINNYNEKFKGKATFTADTSSNTAYMQLSSLTSEDSAVYYCASGDYFDSTFVYYWGQGTTLTVSS
VL: DVLMTQTPLSLPVSLGDQASISCRSSQSIVHSNGNTYLEWYLQKPGQSPKLLIYKVSNRFSGVPDRFSGSGSGTDFTLKISRVEAEDLGVYYCFQGSHVPRTFGGGTKLEIKR
notes: Murine-derived monoclonal anti-IL1RAP antibody; also called CAN01-AF488 (AlexaFluor488-labelled form)
Take B1: in test [1], the “EC50, murine IL-1 alpha-stimulated HEK-Blue IL-33/IL-1β cells” value was 84.2 nM; the “EC50, murine IL-1 beta-stimulated HEK-Blue IL-33/IL-1β cells” value is more than 100 nM; the “EC50, murine IL-33-stimulated HEK-Blue IL-33/IL-1β cells” value was more than 100 nM; the “IC50, murine IL-1 alpha-stimulated HEK-Blue IL-33/IL-1β cells” value came out at 81.7 nM. Further, in test [1], the “IC50, murine IL-1 beta-stimulated HEK-Blue IL-33/IL-1β cells” value was determined as 50 nM and the “IC50, murine IL-33-stimulated HEK-Blue IL-33/IL-1β cells” value is more than 100 nM. In test [2], the Kd – broadly, the constant that tells how readily two partners part at equilibrium – was determined as 1.43 nM; the koff (usually a measure of how fast the partners let go of each other) was determined as 0.000335 s⁻¹; the kon (commonly a measure of how fast the partners come together) is 234000 M⁻¹ s⁻¹.

B2: CAN03 (antibody, V domains shown)
VH: DVKLVESGGGLVKPGGSLKLSCAASGFTFSIYTMSWVRQTPEKRLEWVATISIGGSYINYPDSVKGRFTISRDNAKNTLYLQMSSLKSEDTAIYYCSREVDGSYAMDYWGQGTSVTVSS
VL: DILLTQSPAILSVSPGERVSFSCRASQSIGTSIHWYQRRTNGSPRLLIKSASESISGIPSRFSGSGSGTDFTLSINSVESEDIADYYCQQSNSWPTTFGAGTKLELKR
notes: Murine-derived monoclonal anti-IL1RAP antibody; also called CAN03-AF488 (AlexaFluor488-labelled form)
Consider B2, for which, in test [3], the “EC50, human IL-1α-stimulated HEK-Blue IL-33/IL-1β cells” value turned out to be 37.6 nM; the “EC50, human IL-1β-stimulated HEK-Blue IL-33/IL-1β cells” value was 10.5 nM; the “EC50, human IL-33-stimulated HEK-Blue IL-33/IL-1β cells” value was 30.5 nM; the “IC50, human IL-1α-stimulated HEK-Blue IL-33/IL-1β cells” value is 37.3 nM. In addition, in test [3], the “IC50, human IL-1β-stimulated HEK-Blue IL-33/IL-1β cells” value is 10.1 nM and the “IC50, human IL-33-stimulated HEK-Blue IL-33/IL-1β cells” value is 30.4 nM. In test [1], the “EC50, murine IL-1 alpha-stimulated HEK-Blue IL-33/IL-1β cells” value is 2.9 nM; the “EC50, murine IL-1 beta-stimulated HEK-Blue IL-33/IL-1β cells” value came out at 1.56 nM; the “EC50, murine IL-33-stimulated HEK-Blue IL-33/IL-1β cells” value was found to be 4.01 nM; the “IC50, murine IL-1 alpha-stimulated HEK-Blue IL-33/IL-1β cells” value was found to be 5 nM. In addition, in test [1], the “IC50, murine IL-1 beta-stimulated HEK-Blue IL-33/IL-1β cells” value came out at 1.59 nM and the “IC50, murine IL-33-stimulated HEK-Blue IL-33/IL-1β cells” value came to 4.12 nM. In test [2], the affinity, expressed as Kd, was 0.321 nM; the koff stood at 7.25e-05 s⁻¹; the kon was determined as 226000 M⁻¹ s⁻¹.
